# Test results from the DeepSol protein solubility set.
# Experiment: soluble on expression in E. coli; label from the status in PepcDB or PDB records
row,Sequence,soluble on expression in E. coli
1,MIHAARSLAGSRAGPLLALLLLGLATARAEPVDGLPLRADGDGRWSLAAGRYAGNFVIDRPLHLRCEAGAELDGGGHGSLLTLTSPGITVEGCRLRNWGRNLTELDAAIFVGKAASGAVIRGNDLRGAGFGVWLDATVGAQVLDNRIEGDESVRSQDRGNGIHLYAVKDALVRGNRVSHTRDGVYIDTSNDSSIEANRFEELRYGVHYMFTHNSRVTDNLTRRTRTGYALMQSRKLTVTGNRSIDDENYGILMNYITYSTLAGNRVEGVRSGSTGDAMISGAEGKALFIYNSLFNRIEGNSFADSALGIHLTAGSEDNRIAGNAFIGNRQQVKYVASREQEWSADGRGNYWSDYLGWDRDDDGLGDVAYEPNDNVDRLIWLYPQVRLLLNSPSIELLRWVQRAFPVVRSPGVRDSHPLMRMPAAEPRPLEHHHHHH,not soluble
2,MAHHHHHHMDGAYGMRTVLNSSRLEEEPKYTLNPADLPHSSMNANNMMNGAVLTNGYHTSDYVINRESYPPDMMPQFKIDQGGSAYNNTMPMNSIIHTDPNESINMQGMKTCLETTTGFDSYRNLMNYNNTQNTIQASQVPFHLDDYNSGADLMYMSHPHTGDNFSPDYLNNLRSTETDPMTYGNNFNIPNGQFNSMLGENNNYNSLPYSMPIFENMNNPQMYMQQMNSKQALSGPTQKMDHTCSIRKMPAVSKRKIKPKKFFPCC,soluble
3,TNSAVVDVSFGFPSLVGFTFMSEMVHQFKMTFPKARVSMYEAQLSAFLPAIRDGRLDFAIGTLSDEMKLQDLHVEPLFESEFVLVANRARIGNGTVRLASLQHEQWVLPETNMGYYSELLTTLQRSGIRRENIVNTDSVVTIYNLVLNAD,not soluble
4,MISHSELRKLFYSADAVCFDVDSTVIREEGIDELAKICGVEDAVSEMTRRAMGGAVPFKAALTERLALIQPSREQVQRLIAEQPPHLTPGIRELVSRLQERNVQVFLISGGFRSIVEHVASKLNIPATNVFANRLKFYFNGEYAGFDETQPTAESGGKGKVIKLLKEKFHFKKIIMIGDGATDMEACPPADAFIGFGGNVIRQQVKDNAKWYITDFVELLGELEE,soluble
5,MSLGYKQIRDVSVLCDFAANCTLSLNPGTGENAPGIGLYRSSKADSIPELRLSFSEQMPKTGKLEILVDGKPELDTNIAALKVRNNELVYVDEAGVAKLIGAMKNGQKLQLKLADKVSGYSLSGFVGGLIYLDEQQARDGTVAALQVKGTKPAPAAPDITLIETVEQIPEGIRKDFSDDAATCGGASPESFRLAGGFVTKIADGLNLVGLPCGAPGAYNQPYVFYSRYENRIVPVSLPVISDDGPTTTDSAWNIDWNNRTRTLTGFFKGRGIGDCGTYDVWKAVDSGEGRVSFVLKEERAKGDCDGNYAGGPQNWPASWPPKTKEGHHHHHH,soluble
6,MGSDKIHHHHHHMKLWAIYFEPEDWVGFRETRRFSFSDRVESVFPSSFPFYGAVRTALLMKNQKFDPGDVERAGDVRMFGPFVFENTPEGRKHYFPLPRNIYKTDSGYRVTPIVEIDGVYLPWKPEYKMDSKESTSGGLIELSDLELLRSNTQGVCKFDLVSAEKIFKKETHIGVAFEENRKKVKERMIYSISYYRFYDGGFFMFTDDERTVELVSKLDGVFLGMKSKWSAVEVEELNTTAFDPPDYKNVAVALITPAVFDGGGMPKDKTILGKRVLTTAGIRKQVVSGWDLRENKPKKIYHAVSPGAVYYLEGKVNGHVLNESKFTDFGFGRCIFMKYEKL,not soluble
7,MTLTEQPQRIAILHSLYLEYFLALGTPPIASAGASTGDAMKALGEWETLKPYAGTAKIIDLGSARDLNLEAILGANPDVIVTFKGQGNLDKIYEQLEQIAPVILVDFSAPWQEQILACAEIVNKEADAQKLIKEIEDSVQSAKEKLSRLEHHHHHH,not soluble
8,MSLATVDKPLPPTDWKVVDNSKTYLKESAMRSFAFDDTLCTLAGKTGQSFIRFWVHENTIVLGTQDTRLPFIREAIEFIEQEGYRAVVRNSGGLAVCLDAGILNLSLVFPGEATFSIDEGYERMVTLVKAIFKEEQIEAGEIAGSYCPGSYDLSIDGKKFAGISQRRIRGGIAVQIYLCVQGSGSARAAFIRSVYNKAVQTSKPAFSYPDIKPEVMASLSELTNVPYSIETIIGRAKTAILESGGQLESAVLSPEEELLYETQLERMIDRHNRCLREGHHHHHH,soluble
9,MGSDKIHHHHHHMAKFQSYVICTSPRSGSTLLCNMLAATGVAGKPKSYFHHGSITDWLSYLNLDINPSLPESDLLAAIFEAAVETGRNGTGLFGLRLQRHSFDLFVEKLAVLYPTLASDRQRIEAAFGSTLFIHLTRLDKVQQAVSYVKAQQTGLWHRAPDGTELERLSAPRDPIYDAAKIHASYDEFIQYDRAWQSWFDMQGIQPLRITYEALCADPIASLKDVLVQLGVNGEAASSVVPGTAKLADGINQSWETRFRTEHLHSDPL,not soluble
10,MGSDKIHHHHHHADFVSDYIWRGAYQNSGFSVQPTLGLSYGNLSLSAWGSQSLTKTDGAQEFDINLSYTIGGLGITVTDYWWNGITMPYGDYKHDHHFEGTLAYNFGENFPLTLSWSTMFAGGDDNKDGDRAYSTYINASYNIACPAEITLTPSVGFTPWKGMYDADGAAFTDIALKASKNINITDHFSLPLFVQAIVSPSFDKTYLIAGLSIGF,not soluble
11,MNELQAYHLSRNQFCPNLFFLAMNNVAQTDTPQQYDLRILRALRRITRSIALHSRQLAAVSHITAPQLMCLRAVIAGGPMTATAISREIHVSPSTVVGILDRLEDKGLIRRERGREDRRIVFVTATEGGRTLAAEAPSPLQKHLADGLNALPELEQATITLALERIVALMEQEGHAVEAAGEGSPPILEMPTGGAPPESGLVV,not soluble
12,MSIRIDRQRCIGCGKCAEICPGNLIVIDEDKKAFVRDPRDCWGCAACVKECKFSAIRYFLGAEIGGNGTTMYVEKENDEIMYWYFEKPSGEKEMIVQNLKDNTTYLEHHHHHH,not soluble
13,MTLSRVSEMALSPDGKTAVYAVSFPDVKTNKATRELFTVNLDGSGRKQITDTESNEYAPAWMADGKRIAFMSNEGGSMQLWVMNADGTERRQLSNIEGGITGFLFSPDEKQVLFTKDIKFGKRTKDIYPDLDKATGRIITDLMYKHWDEWVETIPHPFIANATDGMITTGKDIMEGEPYEAPMKPWSGIEDFSWSPDGQNIAYASRKKTGMAYSLSTNSDIYIYNLASGRTHNISEGMMGYDTYPKFSPDGKSIAWISMERDGYESDLKRLFVADLATGKRTHVNPTFDYNVDMIQWAPDSKGIYFLACKEAETNLWEITLKTGKIRQITQGQHDYADFSVRNDVMLAKRHSFELPDDLYRVNLKNGAAQAVTAENKVILDRLTPITCEKRWMKTTDGGNMLTWVVLPPNFDKNKKYPAILYCQGGPQNTVSQFWSFRWNLRLMAEQGYIVIAPNRHGVPGFGQKWNEQISGDYGGQNMRDYLTAVDEMKKEPYVDGDRIGAVGASYGGFSVYWLAGHHDKRFAAFIAHAGIFNLEMQYATTEEMWFANWDIGGPFWEKDNVVAQRTYATSPHKFVQNWDTPILMIHGELDFRILASQAMAAFDAAQLRGVPSEMLIYPDENHWVLQPQNALLFHRTFFGWLDRWLKK,not soluble
14,MKNREIYAEMRCIPPVVLRADGRNFKNTLSGLGFEKPYDTTFARAMADTAELFIKKSGLSPYFAYTFSDEISFLFTDLPFDGRVEKIDSVVASFLGSALTIKLRLEAPIAFDSRLVALQKEEVSEYFHWRQLEAWRNFVASWGYYSLRNEGMGKDEAGKFLKGKKEWEIHEMLFERGINLAALPAWQRRGIIISKEECEISGFNPVYGKEVKSMRRRITQNWEIPKFKSEEGITFLEKLINRNMAGDPLEHHHHHH,not soluble
15,SKIVKIIGREIIDSRGNPTVEAEVHLEGGFVGMAAAPSGASTGSREALELRDGDKSRFLGKGVTKAVAAVNGPIAQALIGKDAKDQAGIDKIMIDLDGTENKSKFGANAILAVSLANAKAAAAAKGMPLYEHIAELNGTPGKYSMPVPMMNIINGGEHADNNVDIQEFMIQPVGAKTVKEAIRMGSEVFHHLAKVLKAKGMNTAVGDEGGYAPNLGSNAEALAVIAEAVKAAGYELGKDITLAMDCAASEFYKDGKYVLAGEGNKAFTSEEFTHFLEELTKQYPIVSIEDGLDESDWDGFAYQTKVLGDKIQLVGDDLFVTNTKILKEGIEKGIANSILIKFNQIGSLTETLAAIKMAKDAGYTAVISHRSGETEDATIADLAVGTAAGQIKTGSMSRSDRVAKYNQLIRIEEALGEKAPYNGRKEIKGQA,soluble
16,MGSSHHHHHHGGTGENLYFQGGSGSFRYTNHLVATLKHRLFLEAAHRQLVRQTFTGVCNGIEVTCTAYGSVVGIRMLDRAVWEPHYQVAADNKSEAAAATPTAPAAASPSRPSSSSSSSSTASGKTGIDLVKLSASIQAATWQAIQKVRAAKEETHSRSLRRNPQVLAEARLRDWYEQDANTLHPRPFDGLKNLEATEWMQAVRFGVPQPARYRRPNAAPKDLGEGGDGAHTDQKPRETITVLRDEDCDPANIPIGSVHPLFAPGLLQLEVDPNVATNGGSRVDEFFVLSEQRKEMRRDEEAFWERVELIRRSQLATIPKGGVKRGYADMADTVQDSIEEKVQLRFTQ,soluble
17,MKIIGFACQWCAYQAADLAGSLKMKYPESIRLLRVPCSGRVNAEFILKALLSGADGVFVAGCPISECHYRSGNRIAKTKVALLKRLLPEFGLESGRVEFLQVSSADARKFVEFAKEFDERIRKLGPNPLRRDER,not soluble
18,MVVVEQIKSQKIHGCQILETVYKHSCGGLPPVRSALEKILAVCHGVMYKQLSAWMLHGLLLDQHEEFFIKQGPSSGNVSAQPEEDEEDLGIGGLTGKQLRELQDLRLIEEENMLAPSLKQFSLRVEILPSYIPVRVAEKILFVGESVQMFENQNVNLTRKGSILKNQEDTFAAELHRLKQQPLFSLVDFEQVVDRIRSTVAEHLWKLMVEESDLLGQLKIIKDFYLLGRGELFQAFIDTAQHMLKTPPTAVTEHDVNVAFQQSAHKVLLDDDNLLPLLHLTIEYHGKEHKADATQAREGPSRETSPREAPASGWAALGLSYKVQWPLHILFTPAVLEKNRQF,soluble
19,MVYNVLLSLPMMIQARWELLALLLGSGLIKQMDEVIFKEIMACASDQDLAARCSSVMLQISSNSDTCDKTAAIIFKGLTSPVAAVRSNVHRSWLCRIITLKNSQKCVETLLKLCKKSIKTTGNCSKILPISFRELPGLTCVDLQWRAILDEEPGDFSAFCYFSVLLSLKNASSQVHIQIPANDEFVLAELRNSGSLDVLKVCSKYKIYPEPLENWILEHFSPEMMEYIDFSMLKTFSAGFSQVFEEKKLEICQEKLEKFYPAEDLGRLNVHVDLSKEKLANETLEQFLQIQHESEEYPSVAGVMENLSKQNIDERLFCQKICLINDIMHEKYSILKEIRREMYTEFIFKIITRIPLRSVVDYVGATLKTEALQNPDFKNQIYQMSCQLLRLDKENARPLSLYHCFIGTCQQQDTTARISEIWAIIRGLKCDVKKRKMTEMLAKVVTSSEIQIDPSLLSDMTICSLGLHPTRFNTESTQLFVASISKLLDFRNESERIMLFQATANTPTLMDLISSILSRPSTDFSISGFQMILYFFTRFHIGSMEFYPYNHLLIITKIINFCHWSIRKFAKEPMILSISVDAICGFLPWSYLSEIALNGLEVENDPVEQLIAQNLKHNRFCVLLAEHDKQDTYLTIEDFEKLPKSEFIVEILRKKDAGNDSLNDLGQKLREITGKSMNFEEKHANLLACGILFEKSVEIMENAEKSKDLGQKWKNQYPPRGFLDNLMESFAATNSCINPEEIQNWWLEKCLGMMEIVRKKIIDFY,not soluble
20,RRNLGGRLYLVTYGKAAALHLDPVEKKPLYHFHPGEGILSVGTVGCNLFCAFCQNWQISQFREFRVSPEGRLDRPIGEDWPPKRLVAEAEALGVRLLAYTYNEPAVWIEYAHDTARLAKARGMKNVFVTSGFETKEAWDYIRPHLDAANVDLKGFTEKFYREVCGARLKPVLESLGHLVASGVWVEVTTLLLEGYNDSDEEVRAMARFLKGLSPDIPWHLTAAHPDYRMLDLRSTRHATLVRAHAIAK,not soluble
